The values that follow come from patent CN111153994A (WUHAN ABEX BIOTECHNOLOGY CO LTD, dated 2020).

The assay has as its target T1, 人TNFα蛋白 (人肿瘤坏死因子) (human, UniProt P01375 77-233).
T1 construct: also called human TNFα
Briefly: ELISA: human TNFα coated on the plate, serially diluted FC9 as primary antibody, HRP goat anti-human IgG-Fc as secondary.

T1 sequence (P01375 77-233 limits assumed): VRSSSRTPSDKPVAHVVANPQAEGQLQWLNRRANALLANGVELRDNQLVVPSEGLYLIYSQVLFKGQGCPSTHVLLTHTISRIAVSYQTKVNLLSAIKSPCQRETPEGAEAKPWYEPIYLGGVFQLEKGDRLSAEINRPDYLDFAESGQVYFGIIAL

B1: FC9抗体 (针对人肿瘤坏死因子的人源单克隆抗体) (antibody, human IgG1, kappa, V domains shown)
VH: QLVQSGAEVKKPGASVKVSCKASGYTFTSYYMHWVRQAPGQGLEWMGIINPSGGSTSYAQKFQGRVTMTRDTSTSTVYMELSSLRSEDTAVYYCASFDYWGQGTLVTVSS
VL: EIVLTQSPGTLSLSPGERATLSCRTSQSVSSSYLAWYQQKPGQAPRLLIYGASSRATGIPDRFSGSGSGTDFTLTISRLEPEDFAVYFCQQFGTSSITFGQGTRLEIKR
notes: Point mutant of FC0 in an aggregation-prone region of the heavy chain; Expressed in 293F cells from pVitro2-neo-mcs, purified on Protein A and detected with anti-human IgG-Fc; also called FC9 antibody
For the molecule B1, the half-maximal effective concentration (EC50) was about 0.4 nM.
